Experimental data taken from patent US7556938B1, “Nucleic acids encoding potassium channel interactors” (Millennium Pharmaceuticals, Inc., priority 1998, dated 2009).
Positions count from the first letter of the chain named.

B1: KChIP1N: N-terminal splice variant of KChIP1 (protein)
chain: MWAEGESEGLQTLGIVVVVCSSLKLLHYLGLIDLSDDKIEDELEMTMVCHRPEGLEQLEAQTNFTKRELQVLYRGFKNECPSGVVNEDTFKQIYAQFFPHGDASTYAHYLFNAFDTTQTGSVKFEDFVTALSILLRGTVHEKLRWTFNLYDINKDGYINKEEMMDIVKAIYDMMGKYTYPVLKEDTPRQHVDVFFQKMDKNKDGIVTLDEFLESCQEDDNIMRSLQLFQNVM
B2: KChIP2l: KChIP2 splice variant, rat KChIP2l (protein)
chain: MRGQGRKESLSESRDLDGSYDQLTGHPPGPSKKALKQRFLKLLPCCGPQALPSVSETLAAPASLRPHRPRPLDPDSVEDEFELSTVCHRPEGLEQLQEQTKFTRRELQVLYRGFKNECPSGIVNEENFKQIYSQFFPQGDSSNYATFLFNAFDTNHDGSVSFEDFVAGLSVILRGTIDDRLSWAFNLYDLNKDGCITKEEMLDIMKSIYDMMGKYTYPALREEAPREHVESFFQKMDRNKDGVVTIEEFIESCQQDENIMRSMQLFDNVI
B3: KChIP2m: KChIP2 splice variant m (protein)
chain: MRGQGRKESLSESRDLDGSYDQLTGHPPGPSKKALKQRFLKLLPCCGPQALPSVSENSVEDEFELSTVCHRPEGLEQLQEQTKFTRRELQVLYRGFKNECPSGIVNEENFKQIYSQFFPQGDSSNYATFLFNAFDTNHDGSVSFEDFVAGLSVILRGTIDDRLSWAFNLYDLNKDGCITKEEMLDIMKSIYDMMGKYTYPALREEAPREHVESFFQKMDRNKDGVVTIEEFIESCQQDENIMRSMQLFDNVI
B4: KChIP2C: KChIP2 splice variant, rat KChIP2C (protein)
chain: B3 chain with F248S, D249P, N250L, V251L, I252N
B5: 8t: 8t polypeptide, splice variant of 9q (protein)
chain: MNRCPRRCRSPLGQAARSLYQLVTGSLSPDSVDDEFELSTVCHRPEGLEQLQEQTKFTRKELQVLYRGFKNECPSGIVNEENFKQIYSQFFPQGDSSTYATFLFNAFDTNHDGSVSFEDFVAGLSVILRGTVDDRLNWAFNLYDLNKDGCITKEEMLDIMKSIYDMMGKYTYPALREEAPREHVESFFQKMDRNKDGVVTIEEFIESCQKDENIMRSMQLFDNVI
B6: KChIP4N3: KChIP4 splice variant KChIP4d (protein)
chain: MNVRRVESISAQLEEASSTGGFLYAQNSTKRSIKERLMKLLPCSAAKTSSPAIQNSVEDELEMATVRHRPEALELLEAQSKFTKKELQILYRGFKNECPSGVVNEETFKEIYSQFFPQGDSTTYAHFLFNAFDTDHNGAVSFEDFIKGLSILLRGTVQEKLNWAFNLYDINKDGYITKEEMLDIMKAIYDMMGKCTYPVLKEDAPRQHVETFFQKMDKNKDGVVTIDEFIESCQKDENIMRSMQLFENVI
B7: KChIP4N1: KChIP4 splice variant KChIP4a (protein)
chain: MLTLEWESEGLQTVGIVVIICASLKLLHLLGLIDFSEDSVEDELEMATVRHRPEALELLEAQSKFTKKELQILYRGFKNECPSGVVNEETFKEIYSQFFPQGDSTTYAHFLFNAFDTDHNGAVSFEDFIKGLSILLRGTVQEKLNWAFNLYDINKDGYITKEEMLDIMKAIYDMMGKCTYPVLKEDAPRQHVETFFQKMDKNKDGVVTIDEFIESCQKDENIMRSMQLFENVI
B8: KChIP2s: KChIP2 splice variant, human KChIP2s (protein)
chain: MRGQGRKESLSDSRDLDGSYDQLTDSVDDEFELSTVCHRPEGLEQLQEQTKFTRKELQVLYRGFKNECPSGIVNEENFKQIYSQFFPQGDSSTYATFLFNAFDTNHDGSVSFEDFVAGLSVILRGTVDDRLNWAFNLYDLNKDGCITKEEMLDIMKSIYDMMGKYTYPALREEAPREHVESFFQKMDRNKDGVVTIEEFIESCQKDENIMRSMQLFDNVI
B9: KChIP4N2: N-terminal splice variant of KChIP4 (protein)
chain: MNLEGLEMIAVLIVIVLFVKLLEQFGLIEAGLEDSVEDELEMATVRHRPEALELLEAQSKFTKKELQILYRGFKNECPSGVVNEETFKEIYSQFFPQGDSTTYAHFLFNAFDTDHNGAVSFEDFIKGLSILLRGTVQEKLNWAFNLYDINKDGYITKEEMLDIMKAIYDMMGKCTYPVLKEDAPRQHVETFFQKMDKNKDGVVTIDEFIESCQKDENIMRSMQLFENVI
B10: KChIP1l: KChIP1long splice variant of KChIP1 (protein)
chain: MGAVMGTFSSLQTKQRRPSKDIAWWYYQYQRDKIEDELEMTMVCHRPEGLEQLEAQTNFTKRELQVLYRGFKNECPSGVVNEDTFKQIYAQFFPHGDASTYAHYLFNAFDTTQTGSVKFEDFVTALSILLRGTVHEKLRWTFNLYDINKDGYINKEEMMDIVKAIYDMMGKYTYPVLKEDTPRQHVDVFFQKMDKNKDGIVTLDEFLESCQEDDNIMRSLQLFQNVM

Assays:
[1] = system: rKv4.3; assay: Two-electrode voltage clamp of Kv4.3 currents in Xenopus oocytes co-injected with KChIP cRNA; format: cell-based, rat; conditions: for effect on Kv4.3 current: co-injected with Kv4.3 cRNA; for fold increase of inactivation time constant of Kv4.3: versus Kv4.3 alone
Chain of rKv4.3 (Q62897 1-487 limits assumed): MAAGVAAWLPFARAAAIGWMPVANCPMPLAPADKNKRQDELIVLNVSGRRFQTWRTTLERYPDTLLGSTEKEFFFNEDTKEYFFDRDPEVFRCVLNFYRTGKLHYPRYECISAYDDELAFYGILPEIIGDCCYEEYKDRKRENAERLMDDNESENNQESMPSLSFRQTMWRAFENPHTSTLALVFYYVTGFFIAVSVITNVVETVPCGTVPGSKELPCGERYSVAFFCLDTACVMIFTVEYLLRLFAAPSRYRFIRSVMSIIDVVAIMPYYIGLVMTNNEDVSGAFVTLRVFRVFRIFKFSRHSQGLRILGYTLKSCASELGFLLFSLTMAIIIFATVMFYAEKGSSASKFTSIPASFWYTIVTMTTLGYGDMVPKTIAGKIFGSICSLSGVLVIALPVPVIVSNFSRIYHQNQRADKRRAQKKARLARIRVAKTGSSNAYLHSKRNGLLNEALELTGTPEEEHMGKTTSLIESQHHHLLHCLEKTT
Protocol: Frogs underwent no more than two surgeries and surgeries were performed by well established techniques. Frogs were anesthetized with ice. Total cRNA (1-10 ng) was injected into stage IV Xenopus oocytes that were harvested the previous day. The Xenopus oocytes were incubated in ND96 containing (in mM) 96 NaCl, 2 KCl, 1.8 CaCl2, 1 MgCl2, 5 HEPES, pH 7.6, plus (Gentamycin 50 μg/ml) at 18° C. Xenopus oocytes were studied 3-7 days after injection. The two-electrode voltage-clamp recordings were performed in ND96 solution using a TURBO TEC 03 Clamp Amplifier (ALA Scientific Instruments, Westbury, N.Y.). Both electrodes were filled with 3 M KCl and had electrode resistances ranging from 0.2-1 MOhm. The current signals were filtered at 1000 Hz before transferred on a PC (Gateway, Calif.) using the PULSE software (HEKA, Germany).
To investigate whether the modulatory effects of these KChIPs are specific for Kv4 channels, KChIP1 was coexpressed with Kv1.4 and Kv2.1 in Xenopus oocytes. Xenopus oocytes were injected with 1-3 ng/oocyte of cRNA which was prepared using standard in vitro transcription techniques (Sambrook et al. 1989. Molecular Cloning: a laboratory manual, Cold Spring Harbor Press). Currents in Xenopus oocytes were measured with a two-electrode voltage clamp. […] As a final control for the KChIP effects and to verify that the KChIPs' effects on Kv4 currents are independent of expression system, the above kinetic analyses were repeated after expressing Kv4.3 and KChIP mRNAs in Xenopus oocytes. The effects KChIP1 on for Kv4.3 in the Xenopus oocyte system were strikingly similar to those on Kv4.2 in CHO cells (Table 1).

[2] = molecular target: T1, rKv4.3N (Rattus norvegicus, UniProt Q62897); assay: Yeast two-hybrid binding and specificity test, Kv4.3 N-terminal bait
T1 construct: expressed in transfected cells; host or cells: yeast HF7c (bait), mated with Y187 (fish)
T1 sequence (Q62897 1-180): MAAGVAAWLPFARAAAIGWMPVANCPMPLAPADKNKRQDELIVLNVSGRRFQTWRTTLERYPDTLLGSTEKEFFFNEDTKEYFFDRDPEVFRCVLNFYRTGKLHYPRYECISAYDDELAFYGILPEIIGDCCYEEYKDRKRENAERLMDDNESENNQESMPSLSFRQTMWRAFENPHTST
Protocol: The first 180 amino acids of rKv4.3 (described in Serdio P. et al. (1996) J. Neurophys 75:2174-2179) were amplified by PCR and cloned in frame into pGBT9 resulting in plasmid pFWA2, (hereinafter “bait”). This bait was transformed into the two-hybrid screening strain HF7c and tested for expression and self-activation. The bait was validated for expression by Western blotting.
Two-hybrid screens were carried out essentially as described in Bartel, P. et al. (1993) “Using the Two-Hybrid System to Detect Polypeptide-Polypeptide Interactions” in Cellular Interactions in Development: A Practical Approach, Hartley, D. A. ed. Oxford University Press, Oxford, pp. 153-179, with a bait-library pair of rkv4.3 bait-rat mid brain library. A filter disk beta-galactosidase (beta-gal) assay was performed essentially as previously described (Brill et al. (1994) Mol. Biol. Cell. 5:297-312). Clones that were positive for both reporter gene activity (His and beta-galactosidase) were scored and fish, plasmids were isolated from yeast, transformed into E. coli strain KC8, DNA plasmids were purified and the resulting plasmids were sequenced by conventional methods (Sanger F. et al. (1977) PNAS, 74: 5463-67).
Positive interactor clones were subjected to a binding specificity test where they were exposed to a panel of related and unrelated baits by a mating scheme previously described (Finley R. L. Jr. et al. (1994) PNAS, 91(26):12980-12984). Briefly, positive fish plasmids were transformed into Y187 and the panel of baits were transformed into HF7c. Transformed fish and bait cells were streaked out as stripes on selective medium plates, mated on YPAD plates, and tested for reporter gene activity.

[3] = Kv4.3 co-expressed with the KChIP

Row | Molecule | Inactivation time constant (ms ± SEM) [1, 3] [ms] | Peak amplitude (μA ± SEM) [1, 3] [μA] | effect on Kv4.3 current [1] | also measured
1 | B1 | 1778 ± 136 | 18±3 | did not affect peak amplitude of Kv4.3 | fold increase of inactivation time constant of Kv4.3 [1]: 32 fold
2 | B2 | 87 ± 4 | 51 ± 4 | – | –
3 | B3 | 70 ± 2 | 40 ± 4 | – | binding to rKv4.3N in yeast two-hybrid assay [2]: able to bind to the Kv4.3 polypeptide
4 | B4 | 74 ± 4 | 44 ± 5 | – | –
5 | B5 | – | – | – | binding to rKv4.3N in yeast two-hybrid assay [2]: able to bind to the Kv4.3 polypeptide
6 | B6 | 85 ± 4 | 43 ± 4 | increased the peak amplitude of Kv4.3 | –
7 | B7 | 112 ± 7 | 6 ± 1 | statistically had no significant (ns) effect on Kv4.3 amplitude | –
8 | B8 | 90 ± 3 | 44 ± 3 | – | –
9 | B9 | – | – | – | Peak amplitude (μA ± SEM) ([1]; KChIP4N2 cRNA 1× (stock)): 0 ± 0 μA; Peak amplitude (μA ± SEM) ([1]; KChIP4N2 cRNA diluted 5×): 4 ± 1 μA; Inactivation time constant (ms ± SEM) ([1]; KChIP4N2 cRNA diluted 30×): 681 ± 28 ms; Peak amplitude (μA ± SEM) ([1]; KChIP4N2 cRNA diluted 30×): 25 ± 2 μA; Inactivation time constant (ms ± SEM) ([1]; KChIP4N2 cRNA diluted 120×): 193 ± 13 ms; Peak amplitude (μA ± SEM) ([1]; KChIP4N2 cRNA diluted 120×): 16 ± 3 μA; Inactivation time constant (ms ± SEM) ([1]; KChIP4N2 cRNA diluted 500×): 84 ± 5 ms; Peak amplitude (μA ± SEM) ([1]; KChIP4N2 cRNA diluted 500×): 9 ± 4 μA; effect on inactivation kinetics of Kv4.3 ([1]; high concentrations of KChIP4N2 (e.g. 5× dilution of stock)): converted the fast-inactivating Kv4.3 current into an almost non-inactivating current
10 | B10 | 100 ± 8 | 55±7 | – | fold increase of inactivation time constant of Kv4.3 [1]: ~2 fold
